The source of these data is PMC3078936, “Directed Evolution Reveals the Binding Motif Preference of the LC8/DYNLL Hub Protein and Predicts Large Numbers of Novel Binders in the Human Proteome” (PLoS ONE, 2011).

Ends that are not written are not given here.

The target in data set [1] is T1, LC8 dynein light chain DYNLL1 (residues 1-89) (human (from the printed UniProt …, UniProt P63167 1-89)).
T1 construct: DYNLL1, residues 1-89, UniProt P63167, cloned into pET-15b; The methods name thrombin removal of the His tag only for DYNLL2; also called DYNNL1; source: E. coli BL21(DE3)Star, purified (Ni IMAC, HiTrapQ anion exchange)
T1 sequence (P63167 whole entry, the tested form may be a part): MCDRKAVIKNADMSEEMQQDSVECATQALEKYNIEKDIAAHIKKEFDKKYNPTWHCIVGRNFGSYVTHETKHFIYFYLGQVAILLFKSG
The experiment in a line: ITC; 15 µM DYNLL1 in the cell, 30-40 injections of 3-5 µl peptide; PBS with 3 mM 2-mercaptoethanol, pH 7.4; 299 K; A + B to AB model. Particulars: both partners purified. In general terms: ITC needs no label: the signal is the heat of the interaction.

Data set [2] has as its target T1, LC8 dynein light chain DYNLL1 (residues …). Described as above. Particulars: both partners purified. This is another data set of the same source.
Data set [3] deals with the molecule itself. The experiment in a line: crystal structure; DYNLL2 (1.2 mM dimer) with 1.3 mM dimerized-VSRGTQTE; hanging drop, 293 K, 20% PEG8000, 0.2 M MgCl2, 0.1 M TRIS pH 7.0.

B1: Ac-DKSTQTD, naturally evolved consensus peptide (peptide)
peptide: Ac-DKSTQTD
notes: also called natural consensus; Ac-5 version of the natural consensus; source: synthetic peptide
Broadly, the stoichiometry N is the number of molecules, sites or subunits per partner or assembly. What is called Kd is the equilibrium constant for the complex coming apart. As to B1, the “stoichiometry N” value in data set [1] stood at 1. Further, in data set [2], the Kd is 5600 nM and the dH is -11.7 kcal/mol.

B2: EML3 (8-94), recombinant fragment (domain or fragment, human, UniProt Q32P44 8-94, looked up)
chain: GDGPAREALQSLSQRLRVQEQEMELVKAALAEALRLLRLQVPPSSLQGSGTPAPPGDSLAAPPGLPPTCTPSLVSRGTQTETEVELK
notes: also called EMAP-3; source: recombinant
Regarding B2, in data set [2], the Kd came to 50 nM and the dH was -7.74 kcal/mol.

B3: Ac-GDKSTQTD (peptide)
peptide: Ac-GDKSTQTD
notes: natural consensus extended by Gly at position -5; also called Gly-5 version of the natural consensus; source: synthetic peptide
Regarding B3, in data set [1], the “stoichiometry N” value is 1. In addition, in data set [2], the Kd stood at 560 nM and the dH was -16.8 kcal/mol.

B4: Ac-VDKSTQTD (peptide)
peptide: Ac-VDKSTQTD
notes: natural consensus extended by Val at position -5; also called Val-5 version of the natural consensus; source: synthetic peptide
With B4, the “stoichiometry N” value in data set [1] came out at 1. Moreover, in data set [2], the Kd amounted to 70 nM and the dH was -15.6 kcal/mol.

B5: Ac-GSRGTQTE (peptide)
peptide: Ac-GSRGTQTE
notes: phage-selected consensus with Gly at position -5; also called Gly-5 version of the in vitro evolved consensus; source: synthetic peptide
With B5, the “stoichiometry N” value in data set [1] worked out at 1. In data set [2], the Kd is 1640 nM and the dH is -16.7 kcal/mol.

B6: Ac-VSRGTQTE, in vitro evolved consensus peptide (peptide)
peptide: Ac-VSRGTQTE
notes: also called phage selected consensus; source: synthetic peptide
For B6, the “stoichiometry N” value in data set [1] came out at 1. Further, in data set [2], the Kd amounted to 80 nM and the dH is -18.1 kcal/mol.

B7: dimeric-… (Leu-zipper dimerized … peptide) (peptide)
chain: not shown
notes: first two residues (Gly-7, Ser-6) come from the recombinant construct; leucine zipper of yeast GCN4, residues 250-281; PDB 3P8M holds the construct; not shown: GST, N-terminal, cleaved
On to B7, for which, in data set [2], the Kd is under 7 nM and the dH is -15.5 kcal/mol. Moreover, the binding result in data set [3] is recorded as “binds”.

B8: Ac-SRGTQTE (peptide)
peptide: Ac-SRGTQTE
notes: phage-selected consensus without position -5; also called Ac-5 version of the in vitro evolved consensus; source: synthetic peptide
Regarding B8, in data set [1], the “stoichiometry N” value was determined as 1. Further, in data set [2], the Kd was determined as 15200 nM and the dH was -11.6 kcal/mol.
